Measurements: patent publication US6407222B1, “Cloning and expression of dog gonadotropin releasing hormone receptor” (Merck & Co., Inc., priority 1999, dated 2002)

What was measured:
[1] = molecular target: dog gonadotropin-releasing hormone (GnRH) receptor (dog) (UniProt Q9MZI6); experiment: whole cell radioligand binding assay on transfected CHO-K1 clones (seven of 71 clones)
[2] = molecular target: dog gonadotropin-releasing hormone (GnRH) receptor (dog) (UniProt Q9MZI6); experiment: whole cell radioligand binding assay on CHO-K1 clone 1B2-1F9
dog GnRH receptor = molecular target: T1, dog GnRH receptor (Canis lupus familiaris, UniProt Q9MZI6); experiment: Phosphoinositide (PI) turnover assay in 1B2-1F9 cells (CHO-K1 stably expressing the dog GnRH receptor); type: cell-based; settings: 1B2-1F9 CHO-K1 clone expressing dog GnRH receptor; 37° C., 1 hour; FIG. 5; read-out: EC50 of GnRH-stimulated PI turnover
T1 construct: The full-length coding cDNA of the dog GnRH receptor was cloned from dog pituitary mRNA by RT-PCR; expressed in transfected cells
T1 sequence (Q9MZI6 1-327): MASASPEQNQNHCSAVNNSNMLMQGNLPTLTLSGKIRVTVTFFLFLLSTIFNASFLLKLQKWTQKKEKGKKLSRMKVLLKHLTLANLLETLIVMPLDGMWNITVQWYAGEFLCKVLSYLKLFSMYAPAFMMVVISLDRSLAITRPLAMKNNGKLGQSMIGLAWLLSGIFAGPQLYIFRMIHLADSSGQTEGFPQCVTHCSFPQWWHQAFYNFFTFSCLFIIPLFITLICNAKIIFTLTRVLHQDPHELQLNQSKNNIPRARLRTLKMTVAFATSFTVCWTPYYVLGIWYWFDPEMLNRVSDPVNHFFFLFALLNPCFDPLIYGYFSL
Description: The coding cDNA of the dog GnRH receptor was subcloned into a polycistronic expression vector pIRES1.neo (Clontech Laboratories, Palo Alto, Calif.) to generate cells stably expressing the receptor. The plasmid DNA of pIRES1.neo-dog-GnRHR was transfected into CHO-K1 cells by lipofectin (GIBCO-BRL, Grand Island, N.Y.) following the manufacturer's instruction. Transfection was carried out overnight and the cells were split 48 hours later. G418 at 1 mg/ml was added 24 hours after splitting, and its concentration was increased to 2 mg/ml in 2-3 days. After 10 days selection by G418, colonies were picked and transferred to 24-well plates. The clones that expressed the dog GnRH receptor were screened by a whole cell binding assay using a radiolabeled peptide agonist of GnRH, 5-(^125Iodo-Tyr)-Buserelin (Woods Assay, Portland, Oreg.). […] After single cell isolation, the membrane from this clone was prepared, and the membrane binding assay was performed using ^125I-buserelin. […] The GnRH-stimulated PI turnover was also performed.
1B2-1F9 cells are functionally coupled to phospholipase C. […] The eluate was then counted in a scintillation counter.

[3] = molecular target: dog gonadotropin-releasing hormone (GnRH) receptor (dog) (UniProt Q9MZI6); experiment: cell-based or functional assay

5-(125Iodo-Tyr)-Buserelin (peptide)
specific binding activity, fold above the non-specific binding [1]: 5 fold | specific binding activity, fold above the background [2]: > 10 fold

CC(C)C[C@H](NC(=O)CNC(=O)[C@H](Cc1ccc(O)cc1)NC(=O)[C@H](CO)NC(=O)[C@H](Cc1c[nH]c2ccccc12)NC(=O)[C@H](Cc1cnc[nH]1)NC(=O)[C@@H]1CCC(=O)N1)C(=O)N[C@@H](CCCNC(=N)N)C(=O)N1CCC[C@H]1C(=O)NCC(N)=O [GnRH, Gonadotropin-releasing hormone]
EC50 (dog GnRH receptor): 0.3 to 0.4 nM

Gonadotropin-releasing hormone (GnRH) (from UniProt P01148 24-92) (ligand)
EC50 of GnRH-stimulated PI turnover [3]: 0.3 to 0.4 nM
